± gives the standard error. This sample holds only a part of the variants without activity.
B1: glmS ribozyme (parent)
chain: AUAAAAGCGCCAGAACUACAGAAAUGUAGUUGACGAGGAGGAGGUUUAUCGAAUUUUCGGCGGAUGCCUCCAAA

Variants of: B1
Assay: self-cleavage kobs at 2500 uM GlcN6P; higher = faster cleavage; RNA array
Settings: with glucosamine-6-phosphate
Method in brief: (§1)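 Barcoded ribozyme variants were transcribed in situ on sequenced MiSeq chips by E. coli RNA polymerase. At 37 °C, a hybridised Cy3 probe tracked them while glucosamine-6-phosphate (40 μM to 10 mM) in HEPES/KCl/Mg(OAc)2 buffer flowed in and tiles were imaged over ~14 h. Per-tile medians of signals normalised to baseline and to non-cleaving reference variants were fit to one- or two-exponential decays, giving kobs. kcat and KM came from weighted Michaelis–Menten fits across concentrations.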

Variant | self-cleavage kobs at 2500 uM GlcN6P [s⁻¹]
C8G A14G G44C U54A C71U | < 1e-05
G29A U65G | 0.000664 ± 0.00023
C10G C19A A39U U69C | < 1e-05
A6U C50U C68G C71A | 8.39e-05 ± 3e-05
C16U U30C G32U G35U U47G | < 1e-05
G29A G41A A48C C71G | < 1e-05
G29C A52G C67U | 7.8e-05 ± 2.1e-05
A14C U31C U65A C70A | 7.72e-05 ± 2.5e-05
A12G G41A C50A | < 1e-05
C34A G37U U46G U65G | < 1e-05
G7U C11U G13C A36U U56A | < 1e-05
U30C G35A C67G | < 1e-05
C50U C61U U69A | 0.000118 ± 3.5e-05
A15C U31C G41C U57G | < 1e-05
C8G C16A G43U G44U G62A | < 1e-05
C10U U57G C67U C70U | 6.12e-05 ± 2.7e-05
C11U G40A U49C G59C | < 1e-05
U30G U57A | 4.22e-05 ± 1.5e-05
A15C U47C U55C | 0.000237 ± 7.7e-05
C11G A15C U45C C68G | < 1e-05
A6C G38U A42G U57C | < 1e-05
G7C G51U A53U G60U | < 1e-05
G13C C34G U49C C71A | < 1e-05
A15G G41U U56G C71G | 8.85e-05 ± 2e-05
A12U G44C C61G | < 1e-05
A33G G59C C68U | < 1e-05
G51C G59A C71U | < 1e-05

Variant | self-cleavage kobs at 2500 uM GlcN6P [s⁻¹]
G44U U57A C71A | < 1e-05
C11A U65G C70G C71A | 0.000187 ± 6.3e-05
G9C C16G G29U | < 1e-05
A12C U31A U47C C67U | 5.13e-05 ± 2.1e-05
A12G U45G G60U | < 1e-05
A42C U46A U56A | < 1e-05
A14U U56A G63A | < 1e-05
C8A C50U A64U | < 1e-05
C10G A42G G43A | < 1e-05
A48C U49C G59C | < 1e-05
G9C U45G C50U G59U | < 1e-05
A53G C61G G62A | < 1e-05
C34A G51C U54G | < 1e-05
C10A C16U A48U | < 1e-05
A36G C58U G59U A64G | < 1e-05
A39U U65C C67G | 0.000168 ± 5.5e-05
G29A U55A C67U | 0.000242 ± 4.9e-05
C50A U56G C70A | 8.66e-05 ± 2.8e-05
A42U G66A | 7.23e-05 ± 2.1e-05
U30G C34A G60U | < 1e-05
C34U A48U G59C C68A U69C | < 1e-05
U57A C67A C71A | 0.000181 ± 4.1e-05
A15G U46G G51C U55C G59A G63U | < 1e-05
A14C G21U G26U A36C | < 1e-05
C8U G43C A52U C70U | < 1e-05
A39U U47C U56A | 0.00121 ± 0.00039
C16G U31G A42G | 0.000761 ± 0.0003

Variant | self-cleavage kobs at 2500 uM GlcN6P [s⁻¹]
C34G A36U G40A A64C C71G | < 1e-05
C16G G37U A42G | < 1e-05
G35U A36G G63C | < 1e-05
A15C G37A A39G | 0.000365 ± 0.00012
C11A G38C G40U G59A | < 1e-05
C34G G59A | < 1e-05
U30C G43A U46G C67U | < 1e-05
G35A C50A U57G | < 1e-05
A12G G32U A36U U49A C50G | < 1e-05
C10U C16U A33U | 6.87e-05 ± 3.4e-05
C10A G13U U56C U69G | < 1e-05
C11G G35A G40A | < 1e-05
C16G G41U C50G | < 1e-05
A15G G29A A36G | < 1e-05
G29C G40A A42U G60U C61U | < 1e-05
A42U U45C U55A | 6.42e-05 ± 1.1e-05
C19A G44A | 0.000112 ± 4e-05
A6G U55A C61G | < 1e-05
G29C U31G | < 1e-05
G40U C58G G60U C68U | < 1e-05
C16G G29C A53U | 0.00684 ± 0.0022
G7U G13U A42U G44C | < 1e-05
C8A A14G A64U | < 1e-05
G13A G40C G60A U65A | < 1e-05
A6G U54G C70U | 0.0001 ± 2.2e-05

Variants of: B1
Assay: self-cleavage kobs at 10000 uM GlcN6P; higher = faster cleavage; RNA array
Settings: with glucosamine-6-phosphate
Method in brief: as §1

Variant | self-cleavage kobs at 10000 uM GlcN6P [s⁻¹]
G29A U65G | 0.00113 ± 0.00027
U30G U57A | 8.3e-05 ± 1.8e-05
A39U U65C C67G | 0.00025 ± 6e-05
A42U G66A | 0.000114 ± 2.5e-05
C34G G59A | < 1e-05
C10U C16U A33U | 3.41e-05 ± 1.4e-05
C16G G41U C50G | < 1e-05
A15G G29A A36G | < 1e-05
